# Source: the supplement of paper PMC9732359
# ± gives the uncertainty stated by the source.
# Assay: protein stability index of a GFP-peptide fusion (yeast GPS) (PSI 1-4); higher = more stable; sorted into four equal gates, so the index is relative within each strain
# In short: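 Tiled 17-residue peptides from yeast proteins were fused downstream of GFP on a plasmid that also expresses Cherry, and the pooled library was carried in yeast. Mid-log cultures grown in leucine-free medium were sorted into four equal gates by GFP/Cherry fluorescence ratio. Plasmids from each gate were PCR-amplified and Illumina-sequenced, and reads were assigned to strains by barcodes. Each peptide's protein stability index is the sum, over gates, of the gate's read frequency multiplied by its gate number.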
Sequence,protein stability index (doa10∆),protein stability index (pdr5∆),protein stability index (san1∆),protein stability index (ubr1∆)
CIVDFTNPKLKSEFDDL [YMR129W/POM152],1.81 ± 0.067,2.1 ± 0.074,1.82 ± 0.13,1.69 ± 0.052
SSTGGGLFGNKPALGSL [YGR119C/NUP57],3.33 ± 0.1,3.44 ± 0.088,3.4 ± 0.048,3.41 ± 0.056
GITGNLDRIPMHSYFIF [COB],2.13 ± 0.12,2.19 ± 0.085,2.39 ± 0.072,2.43 ± 0.12
SVRLQVTKILPHLIIQN [IRR1],1.65 ± 0.091,1.7 ± 0.064,1.72 ± 0.094,1.7 ± 0.06
LNSLLTYIKSEITQQEK [SMC4],2.77 ± 0.066,2.04 ± 0.055,2.73 ± 0.071,2.63 ± 0.06
LCDIDEVSDFDEMYELT [DIB1],2.43 ± 0.19,3.08 ± 0.1,2.65 ± 0.12,1.9 ± 0.16
PAWFNNPRKRAIPNSII [YMR153W/NUP53],2.62 ± 0.084,2.94 ± 0.083,3.21 ± 0.079,3.25 ± 0.084
GQIITLFSSRRLQAKRL [RMP1],2.78 ± 0.078,2.76 ± 0.052,2.89 ± 0.051,2.65 ± 0.064
KTLEKLESTIAETQGSK [IRR1],–,–,1.39 ± 0.27,–
TSSLQLYKFQNFQDLSY [YML103C/NUP188],2.81 ± 0.065,3.04 ± 0.064,2.84 ± 0.055,2.65 ± 0.071
LRIGRIEDVTPVPSDST [RPS14B],2.91 ± 0.037,2.98 ± 0.043,2.78 ± 0.04,2.92 ± 0.037
YFQQTTIDWVEAGLQLC [PRP8],3.53 ± 0.11,3.19 ± 0.099,3.2 ± 0.064,3.04 ± 0.1
PQLTFTHVANFMNDAAA [YML103C/NUP188],3.04 ± 0.094,3 ± 0.082,2.7 ± 0.068,2.95 ± 0.05
KEKIQHELGINIDSLKF [BRR2],3.19 ± 0.065,3.07 ± 0.053,3.05 ± 0.043,3.22 ± 0.06
VTFSFFNPQDTEENIKG [RRP45],2.15 ± 0.081,2.55 ± 0.08,3.08 ± 0.08,3.19 ± 0.076
QSKEILKGLLQELKADS [SRP72],2.36 ± 0.17,2.13 ± 0.27,2.75 ± 0.096,2.6 ± 0.11
PSLNNKISDDELERILK [RPB4],3.09 ± 0.096,2.9 ± 0.098,3.06 ± 0.09,3.21 ± 0.07
DSKMIQDLSRNTLGKGQ [SNU114],3.25 ± 0.098,3.34 ± 0.11,3.34 ± 0.12,3.61 ± 0.14
FLKDADVECIKAKSHFT [YJL039C/NUP192],3.11 ± 0.13,3.2 ± 0.14,2.91 ± 0.089,2.98 ± 0.059
SKKRKLNSLTNLLSKRN [SNM1],2.87 ± 0.071,2.99 ± 0.059,2.84 ± 0.055,2.81 ± 0.057
FILIPLYKIFSYALSME [SNU114],1.65 ± 0.042,1.45 ± 0.037,1.46 ± 0.075,1.68 ± 0.031
EEFRNLAALNVWYGLSD [SSN2],3.37 ± 0.14,2.8 ± 0.13,2.39 ± 0.12,2.94 ± 0.074
VTTFLNWCAEPEHDERK [CYT1],3.41 ± 0.089,3.39 ± 0.092,3.08 ± 0.18,3.15 ± 0.077
LEHPYGKEVEVLMETKN [SNU114],2.26 ± 0.083,2.98 ± 0.068,2 ± 0.1,2.21 ± 0.057
QCNYSSLVFNRKLAVER [PRE5],2.23 ± 0.2,1.5 ± 0.18,1.46 ± 0.19,1.67 ± 0.2
HEFTLSFTYELKQHNQN [BRR2],1.98 ± 0.074,1.97 ± 0.054,2.4 ± 0.08,2.43 ± 0.073
